This is an account of results in publication doi:10.1101/2020.08.10.245522.

In test [1] the target is CA hexamer-2 (HIV-1 | not stated). The test is described as follows: ITC. (In general: Isothermal titration calorimetry measures the heat released or taken up as one component is titrated into another.)
The target of test [2] is A14C/E45C disulfide crosslinked CA tubes (HIV-1). The test is described as follows: co-sedimentation.
For test [3], the target named is CA hexamer-2 (HIV-1 | not stated). Briefly: SEC-MALS. In general terms: SEC sorts molecules by how far they enter the pores of the column.

Chain of NUP153^1401-1475 (P49790 1401-1475): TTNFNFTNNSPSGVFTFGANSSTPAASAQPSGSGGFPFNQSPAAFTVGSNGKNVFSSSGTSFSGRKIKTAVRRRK

Consider “NUP153^1411-1475/1425-1464Δ peptide (25 aa) (from UniProt P49790 1411-1475)”, for which the Kd (commonly the free concentration of one partner at which half of the binding sites on the other are occupied at equilibrium, for simple one-to-one binding) in test [1] worked out at 800 nM. As for “NUP153^1411-1465 (from UniProt P49790 1411-1464) (domain or fragment)”, the percent bound to CA tubes in test [2] was determined as 25%.

“NUP153^1401-1475 (from UniProt P49790 1401-1475) (domain or fragment)”: the stoichiometry N (NUP153^1401-1475 per hexamer-2) in test [3] worked out at 1. As to “NUP153^1465-1475 (from UniProt P49790 1465-1475) (domain or fragment)”, in test [2], the percent bound to CA tubes worked out at 50%.
